This passage reports protein production results from a protein production outcome set (Wang et al. 2014).

This data set can be described thus: label from the status in PepcDB records.

As for “MPRSTWFKALLLLVALWAPLSQAETGWQPIQETIRKSDKDNRQYQAIRLDNGMVVLLVSDPQAVKSLSALVVPVGSLEDPEAYQGLAHYLEHMSLMGSKKYPQADSLAEYLKMHGGSHNASTAPYRTAFYLEVENDALPGAVDRLADAIAEPLLDKKYAERERNAVNAELTMARTRDGMRMAQVSAETINPAHPGSKFSGGNLETLSDKPGNPVQQALKDFHEKYYSANLMKAVIYSNKPLPELAKMAADTFGRVPNKESKKPEITVPVVTDAQKGIIIHYVPALPRKVLRVEFRIDNNSAKFRSKTDELITYLIGNRSPGTLSDWLQKQGLVEGISANSDPIVNGNSGVLAISASLTDKGLANRDQVVAAIFSYLNLLREKGIDKQYFDELANVLDIDFRYPSITRDMDYVEWLADTMIRVPVEHTLDAVNIADRYDAKAVKERLAMMTPQNARIWYISPKEPHNKTAYFVDAPYQVDKISAQTFADWQKKAADIALSLPELNPYIPDDFSLIKSEKKYDHPELIVDESNLRVVYAPSRYFASEPKADVSLILRNPKAMDSARNQVMFALNDYLAGLALDQLSNQASVGGISFSTNANNGLMVNANGYTQRLPQLFQALLEGYFSYTATEDQLEQAKSWYNQMMDSAEKGKAFEQAIMPAQMLSQVPYFSRDERRKILPSITLKEVLAYRDALKSGARPEFMVIGNMTEAQATTLARDVQKQLGADGSEWCRNKDVVVDKKQSVIFEKAGNSTDSALAAVFVPTGYDEYTSSAYSSLLGQIVQPWFYNQLRTEEQLGYAVFAFPMSVGRQWGMGFLLQSNDKQPSFLWERYKAFFPTAEAKLRAMKPDEFAQIQQAVITQMLQAPQTLGEEASKLSKDFDRGNMRFDSRDKIVAQIKLLTPQKLADFFHQAVVEPQGMAILSQISGSQNGKAEYVHPEGWKVWENVSALQQTMPLMSEKNE”, the protein production entry is listed as “not failed”.
Under “MPRSTWFKALLLLVALWAPLSQAETGWQPIQETIRKSDKDNRQYQAIRLDNGMVVLLVSDPQAVKSLSALVVPVGSLEDPEAYQGLAHYLEHMSLMGSKKYPQADSLAEYLKMHGGSHNASXAPYRTAFYLEVENDALPGAVDRLADAIAEPLLDKKYAERERNAVNAELTMARTRDGMRMAQVSAETINPAHPGSKFSGGNLETLSDKPGNPVQQALKDFHEKYYSANLMKAVIYSNKPLPELAKMAADTFGRVPNKESKKPEITVPVVTDAQKGIIIHYVPALPRKVLRVEFRIDNNSAKFRSKTDELITYLIGNRSPGTLSDWLQKQGLVEGISANSDPIVNGNSGVLAISASLTDKGLANRDQVVAAIFSYLNLLREKGIDKQYFDELANVLDIDFRYPSITRDMDYVEWLADTMIRVPVEHTLDAVNIADRYDAKAVKERLAMMTPQNARIWYISPKEPHNKTAYFVDAPYQVDKISEQTFADWQQKAANIALSLPELNPYIPDDFSLIKSEKKYDHPELIVDESNLRVVYAPSRYFSSEPKADVSLILRNPKAMDSARNQVMFALNDYLAGLALDQLSNQASVGGISFSTNANNGLMVNANGYTQRLPQLFQALLEGYFSYTATEDQLEQAKSWYNQMMDSAEKGKAFEQAIMPAQMLSQVPYFSRDERRKILPSITLKEVLAYRDALKSGARPEFMVIGNMTEAQATTLARDVQKQLGADGSEWCRNKDVVVDKKQSVIFEKAGNSTDSALAAVFVPTGYDEYTSSAYSSLLGQIVQPWFYNQLRTEEQLGYAVFAFPMSVGRQWGMGFLLQSNDKQPSFLWERYKAFFPTAEAKLRAMKPDEFAQIQQAVITQMLQAPQTLGEEALKLSKDFDRGNMRFDSRDKIVAQIKLLTPQKLADFFHQAVVEPQGMAILSQISGSQNGKAEYVHPEGWKVWENVSALQQTMPLMSEKNE” stands “failed”; under “MPSDSQNNKRIAQNTLLLYFRMLFLMLVSLYTSRVNLNALGIEDFGIYNVVGGLVAMFSIISGSLVSSISRFITFELGTENKEKLKKVFSTAVSIQFFLVIIVVILAETIGLWFLNNKMVIPEERILAANIIYQFSIISFALSLMSIPYTGTIVAHEKMSAFAYISIFDVIGKLAVALTISIAPIDKLIWFAGFIVFNSTIIQSIYIFYCKRHFEECTYHFIFDKSLLKNMFGFAGWNFIGSIAAILRDQGGNIVINMFCGPAVNAARGVAMQVNNAVSGFVSNFQTALNPQITKSYASGNYDYMMQLIFQGARLSYYILLILALPIISNTHFILQLWLGQVPKHTVLFVQLVLFFTMSESLANPLINAMLATGKIKKFQIIVGGLNLVNLPLSYICLRLGCIPESVVIIAIIISMICEMARVIMLRNMIHFPARSFLKKVYFNVIFVTITASILPLYLHFILEENIYTFTLISVVSFSCTLLSILYIGCSSEERVMVFSKVKVIVNKVSKRYK”, “failed”.
With “MPSEAKYTWDQELNEINIQFPVTGDADSSAIKIRIVGKKICVKNQGEIVIDGELLHEVDVSSLWWVINGDVVDVNVTKKRNEWWDSLLVGSESVDVQKLAENKHADMSMLDAEAREVVEKMMHNTSGKDSE”, the protein production result is reported as “not failed”.
